Test results published in patent US20110150888A1 (Amgen, published 2011).
Substitutions are numbered along the chain they refer to. Names and notes keep the numbering of the source.

T1: human hepcidin (mature, 25 amino acids) (human, mono-biotinylated in the ELISAs and on the KinExA beads (site not stated); unlabelled in solution and on the BIAcore chip)
T1 construct: the form is named in each assay field; also called rhuHepc; rhHepc
T1 peptide: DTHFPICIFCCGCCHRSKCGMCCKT

B1: 15E1 L27H (antibody, V domains shown)
VH: QVQLVESGGGVVQPGRSLRLSCAASGFTFSSYGMHWVRQAPGKGLEWVAVIWYAESNKYYADSVKGRFTISRDNSKNTLYLQMNSLRAEDTAVYYCARAQEGIAPDAFDIWGQGTMVTVSS
VL: SYELTQPPSVSVSPGQTATITCSGDKHGERYACWYQQRPGQSPVLVIYQDSKRPSGIPERFSGSNSGNTATLTISGTQAMDEADYFCQAWYSSTNVLFGGGTKLTVL
notes: Histidine mutant of 15E1, transiently expressed in 293-6E cells; constant regions as in wild-type 15E1; also called L27H (light chain)
B2: 15E1 W52H (antibody, V domains shown)
VH: B1 VH with W52H
VL: B1 VL with H27L
notes: Histidine mutant of 15E1, transiently expressed in 293-6E cells; constant regions as in wild-type 15E1; also called W52H (heavy chain)
B3: 15E1 A89H (antibody, V domains shown)
VH: B1 VH
VL: B1 VL with H27L, A89H
notes: Histidine mutant of 15E1, transiently expressed in 293-6E cells; constant regions as in wild-type 15E1; also called A89H (light chain)
B4: 15E1 A99H (antibody, V domains shown)
VH: B1 VH with A99H
VL: B1 VL with H27L
notes: Histidine mutant of 15E1, transiently expressed in 293-6E cells; constant regions as in wild-type 15E1; also called A99H (heavy chain)
B5: 15E1 N57H (antibody, V domains shown)
VH: B1 VH with N57H
VL: B1 VL with H27L
notes: Histidine mutant of 15E1, transiently expressed in 293-6E cells; constant regions as in wild-type 15E1; also called N57H (heavy chain)
B6: 15E1 A107H L27H (antibody, V domains shown)
VH: B1 VH with A107H
VL: B1 VL
notes: Double histidine mutant of 15E1 (one change in each chain); constant regions as in wild-type 15E1; also called A107H (heavy chain)/L27H (light chain)
B7: 15E1 A107H (antibody, V domains shown)
VH: B1 VH with A107H
VL: B1 VL with H27L
notes: Histidine mutant of 15E1, transiently expressed in 293-6E cells; constant regions as in wild-type 15E1; also called A107H (heavy chain)
B8: 15E1 A107H A89H (antibody, V domains shown)
VH: B1 VH with A107H
VL: B1 VL with H27L, A89H
notes: Double histidine mutant of 15E1 (one change in each chain); constant regions as in wild-type 15E1; also called A107H (heavy chain)/A89H (light chain)
B9: 15E1 A99H A107H (antibody, V domains shown)
VH: B1 VH with A99H, A107H
VL: B1 VL with H27L
notes: Double histidine mutant of 15E1; constant regions as in wild-type 15E1; also called A107H (heavy chain)/A99H (heavy chain)
B10: 15E1 N57H A107H (antibody, V domains shown)
VH: B1 VH with N57H, A107H
VL: B1 VL with H27L
notes: Double histidine mutant of 15E1; constant regions as in wild-type 15E1; also called A107H (heavy chain)/N57H (heavy chain)
B11: antibody 15E1 (wild type) (antibody, V domains shown)
VH: B1 VH
VL: B1 VL with H27L
notes: Human antibody
B12: antibody 26F11 (antibody, V domains shown)
VH: B1 VH with S31N, A54V, E55G, I103M
VL: B1 VL with T19S, H27M, R38K, V44I, S51T, F86Y, L97V
notes: Human antibody
B13: antibody 19B8 (antibody, V domains shown)
VH: QVHLQQWGAGPLKPSETLSLTCAVYNGSFSGYYWSWIRQPPGKGLDWIGDINHSGNTKYNPSLKSRVTISVDTAKNQFSLKLSSVTAADTAVYYCARGDFWSGFDWFDPWGQGTLVTVSS
VL: QSALTQPASVSGSPGQSITISCTGTSSNVGTYKLVSWYQQHPGKAPKLMISEVSKRPSGLSNRFSGSKSGNTASLTISGLQAEDEADYYCSSYAGDSTLVFGGGTKLTVL
notes: Human antibody from Xenomouse IgG2 or IgG4 mice
B14: antibody 23A11 (antibody, V domains shown)
VH: B13 VH with D46E, S83N
VL: B13 VL with V100I, F101V
notes: as for B13
B15: antibody 20E12 (antibody, V domains shown)
VH: B13 VH with H3Q, N26G, D46E, A74S, S83N
VL: B13 VL with T31S, K33N, I50L, N62S, N71D, S91C, D96S
notes: as for B13
B16: antibody 22F12 (antibody, V domains shown)
VH: B13 VH with H3Q, N26G, D46E, A74S, Q77H
VL: B13 VL with T31S, K33N, Q40K, S91C, D96S
notes: as for B13
B17: antibody 22H10 (antibody, V domains shown)
VH: B13 VH with D46E
VL: B13 VL with G43D, M49I, A86V
notes: as for B13
B18: antibody 24E4 (antibody, V domains shown)
VH: QVQLVQSGAEVKEPGASVKVSCKASGYTFTSYGVSWVRQAPGQGLEWMGWISAYNGNTLYAQHLLGRVTMTTDTSTSTAYMELRSLRSDDTAVYYCAREDLGMGDYWGQGTLVTVSS
VL: QSVLTQPPSVSGAPGQRVTISCTGSSSNIGAGYGVYWYQQLPGTAPKLLIYGHNNRPSGVPDRFSGSKSDTSASLAITGLQAEDEADYYCQSYDSNLIGSVFGTGTKVTVL
notes: as for B13

Target: T1, human hepcidin (mature, 25 amino acids)
Experiment: ELISA, mono-biotinylated human hepcidin on Neutravidin plate, pH 6.0 against pH 7.4
Description: (§1) Differential pH binding of the antibodies listed above in Table 3 was then determined by ELISA. 50 μL of Neutravidin (Pierce) at 8 μg/mL in 1×PBS was coated upon a Nunc Maxisorp 384-well plate, and incubated at 37° C. for 1 hr. After blocking the wells with 0.1% BSA/PBS/0.05% Tween20 for 1 hour at room temperature, plates were washed six times with PBS/0.05% Tween20. 25 μL of mono-biotinylated hepcidin at 50 ng/mL in 0.1% BSA/PBS/0.05% Tween20 was added to the 384-well plate, and incubated at room temperature for 1 hour. The plates were next washed six times with PBS/0.05% Tween20. Starting hepcidin antibody concentrations were normalized to 1 μg/mL for pH 5.5 and 6.0 conditions and to 100 ng/mL for pH 7.4 conditions. The hepcidin antibodies were serially diluted 3-fold in PBS/1% NFDM pH 7.4 and 4-fold in PBS/1% NFDM pH 6.0 and 5.5. The dilutions and titrations were performed in polypropylene 96-well dilution plates, and then were transferred in duplicate to a Neutravidin-coated 384-well plate. The biotinylated hepcidin and antibodies were incubated for 2 hours at room temperature. The plate was next washed six times with PBS/0.05% Tween20. 25 μL it of goat anti-huIgG-horseradish peroxidase at a 1:7000 dilution in 0.1% BSA/PBS/0.05% Tween20 was next added to each well of the assay plate. The plate was finally washed six times in PBS/0.05% Tween20. Enhanced K-Blue 3,3′,5,5′-Tetramethylbenzidine (TMB) Substrate (Neogen) was added and the reaction stopped using 1 M H₃PO₄ after 10 minutes of incubation at room temperature. The absorption was measured at 450 nm on a plate reader. Binding data were analyzed by non-linear regression analysis (sigmoidal dose-response, variable slope) to generate EC₅₀ values using GraphPad Prism® software. […] Double combinations of these mutants were made.

fold increase in EC50 as the pH was lowered to 6.0 [fold] | Binder
≥ 1.5 | B1
≥ 1.5 | B2
≥ 1.5 | B3
≥ 1.5 | B4
≥ 1.5 | B5
≥ 5.5 | B6
≥ 1.5 | B7
≥ 5.5 | B8
≥ 5.5 | B9
≥ 5.5 | B10

Target: T1, human hepcidin (mature, 25 amino acids)
Experiment: ELISA, mono-biotinylated human hepcidin on Neutravidin plate, pH 5.5
Description: as §1

EC50 [µg/mL] | Binder
0.0023 | B11
0.008 | B1
0.017 | B2
0.012 | B3
0.0291 | B4
0.0032 | B5
0.316 | B6
0.0037 | B7
0.0161 | B9

Target: T1, human hepcidin (mature, 25 amino acids)
Experiment: ELISA, mono-biotinylated human hepcidin on Neutravidin plate, pH 6.0
Description: as §1

EC50 [ng/mL] | Binder
2.3 | B11
6.5 | B1
5.8 | B2
10.6 | B3
10.7 | B4
4 | B5
19.3 | B6
3.6 | B7
34.7 | B8
5.5 | B9
75.6 | B10

Target: T1, human hepcidin (mature, 25 amino acids)
Experiment: KinExA solution equilibrium, human hepcidin-coated beads
Description: SA-Sepharose beads were pre-coated with biotinylated human hepcidin (SEQ ID NO: 9) and blocked with BSA according to manufacturer's instructions. Antibodies and hepcidin were diluted in PBS/0.1% BSA/0.05% NaN₃ buffer. Fixed concentrations of antibodies 15E1, 15E1 W52H, 15E1 A99H, 15E1 N521-1, 15E1 A107H and 18B11 were incubated with various concentrations of human hepcidin at room temperature for 8 hours before being run through the human hepcidin-coated beads. The amount of the bead-bound antibody was quantified by fluorescently (Cy5)-labeled goat anti-murine-IgG (H+L) antibody (Jackson Immuno Research, West Grove, Pa.). The binding signal is proportional to the concentration of free antibody at equilibrium. Dissociation equilibrium constant (KD) was obtained from nonlinear regression of the competition curves using a dual-curve one-site homogeneous binding model (KinExATM Pro software).

Kd [nM] | Binder
0.037 | B11
> 10 | B4
3 | B5
0.031 | B7

Target: T1, human hepcidin (mature, 25 amino acids)
Experiment: ELISA, mono-biotinylated human hepcidin on Neutravidin plate, pH 7.4
Description: as §1

EC50 [ng/mL] | Binder
2.3 | B11
4.5 | B1
4.5 | B2
5.4 | B3
4.1 | B4
1.8 | B5
4.3 | B6
2 | B7
6 | B8
3 | B9
7.3 | B10

Target: T1, human hepcidin (mature, 25 amino acids)
Experiment: BIAcore, recombinant human hepcidin immobilised on a CM5 chip, 50 nM antibody bound at pH 7.4, dissociation buffers of pH 7.4, 6 and 5.5 (curves not labelled by pH)
Description: Off-rate analysis of dissociation at different pHs was also performed. A slow off-rate is expected to predict increased binding interaction over a longer period of time, while a faster off-rate is expected to predict decreased binding interaction. For example, a faster off-rate at lower pH is expected to predict greater release of antigen at lower pH. Solution equilibrium binding analysis was performed using BIAcore to study the off-rates of antibodies 1S1, 1S3, 2.7, 18B11, 23F11 and 26F11 with recombinant human hepcidin (SEQ ID NO: 9).
Immobilization of recombinant human hepcidin (rhuHepc) to a BIAcore sensor chip surface was performed according to manufacturer's instructions at a flow rate 10 μL/min of running buffer (DPBS: Dulbecco's Phosphate Buffer Salinel X, no CaCl or MgCl, with 0.005% Biacore surfactant P-20). The carboxylated matrix of the sensor chip was first activated with a 60 μL injection of a mixture containing 0.2 M EDC(N-ethyl-N-(dimethylamine-propyl)carbodiimide in water, from BIAcore) and 0.05M NHS (N-hydroxysuccinimide in water, from Biacore). 55 μL of recombinant human hepcidin (1 μg/ml in 10 mM Na-acetate pH4.0) was injected to immobilize onto the sensor chip. The excess reactive groups of the sensor chip were deactivated with an injection of 60 μL of ethanolamine (1.0M, from Biacore).
After rhuHepc was immobilized on the CM5 chip with low density, 50 nM of antibodies 1S1, 1S3, 2.7, 18B11, 23F11 and 26F11 were injected over and bound the rhuHepc surface at pH 7.4. Dissociation buffers with pH 7.4, pH6 and pH 5.5 were run over the bound surface. The dissociation curves were obtained.

binding result | Binder
binds | B12

Target: T1, human hepcidin (mature, 25 amino acids)
Experiment: antibody at 1:250 dilution; KinExA / BIAcore named in the paragraph

fold reduction in affinity at pH 6 compared to pH 7.4 [fold] | Binder
~10 | B13
~10 | B14
~10 | B15
~10 | B16
~10 | B17
~10 | B18
